Assay [1] concerns the target Inactive αIIbβ3 (recombinant human ectodomain αIIbβ3 on DETA beads before activation) (human) (UniProt P08514). The assay can be described thus: flow cytometry, 50 nM FITC-PAC-1 on inactive αIIbβ3 beads, n ≥ 3. For orientation: In flow cytometry, cells or beads pass a laser one at a time.
In assay [2] the target is Activated αIIbβ3 (recombinant human ectodomain αIIbβ3 on DETA beads after incubation in activation buffer with CaCl2, MnCl2 and MgCl2) (human) (UniProt P08514). As to the kind of experiment: flow cytometry, 50 nM FITC-PAC-1 on activated αIIbβ3 beads, n ≥ 3.
The target in assay [3] is T1, recombinant human ectodomain αIIbβ3 immobilized on a surface (activation state not stated at the place of the … (human, UniProt P08514 32-993; P05106 27-718).
T1 construct: also called αIIbβ3 coupled beads; αIIbβ3 coated beads
The assay can be described thus: sandwich ELISA, fibrinogen dose response on plate-immobilized αIIbβ3, HRP labelled detection antibody. The protocol: Fibrinogen ELISA Assay. To ensure similar immobilization levels of recombinant human ectodomain αIIbβ3 between the ELISA plate and integrin coupled magnetic beads, the wells of a 96-well micro plate (Nunc MaxiSorp) were incubated with the same αIIbβ3 concentration per surface area as during the preparation of the magnetic beads, 6.6×10⁴ μg·mL⁻¹·cm⁻². Each well was coated with αIIbβ3 or control proteins (BSA and β3−/− platelet lysate) by incubation of 6 μg/μL protein in binding buffer (TRIS buffered saline with 0.05% TWEEN-20 and 1 mM each of MgCl₂, MnCl₂ and CaCl₂) at 4° C. overnight. Incubation of 3% skim milk (ED Millipore) and 2% TWEEN-20 for 1 hour at 37° C. was used for blocking. The concentration of αIIbβ3 per surface area of bead used when coating SAM coated beads is 6.6×10⁴ μg·mL⁻¹·cm⁻², therefore the wells of 96 well plates used were coated with the same density EDC/NHS quenching achieved by increase pH to 8.6. Bead concentration for synthesis: 6×10⁹ beads·mL⁻¹; Integrin-bead reaction concentration=250 μg·mL⁻¹; Integrin Used=6.6×10⁴ μg·mL⁻¹·cm⁻²; Well Surface Area (50 μL)=0.93 cm²; Concentration/wee for ELISA=6×10⁴ μg·mL⁻¹ (6 μL/well in 50 μL total volume); Stock [αIIbβ3]=5×10⁵ μg·mL⁻¹.
To evaluate the analytical potential of these αIIbβ3 coupled molecular probes, a flow cytometry sandwich assay was developed. […]
Background: An ELISA detects its analyte on a solid surface through an enzyme-linked reagent.

Assay [4] addresses T1, recombinant human ectodomain αIIbβ3 …. The assay can be described thus: flow cytometry sandwich assay, fibrinogen dose response on αIIbβ3 coupled beads, FITC labelled detection antibody, no blocking step. From the text: To evaluate the analytical potential of these αIIbβ3 coupled molecular probes, a flow cytometry sandwich assay was developed. […] The same primary antibody was used for both assays, however, the detection antibody for ELISA was HRP labelled and for flow cytometry was FITC labelled. The fibrinogen does response curves are depicted in the inserts of each of FIGS. 5A and 5B. […] The flow cytometry based assay produced a significant increase in performance compared to ELISA, even though a blocking step and a signal amplification-based detection strategy were employed in ELISA. It was postulated that the significant increase in performance observed is due to the SAM and the immobilization strategy which promotes the high-affinity ligand binding conformation of the integrin.

These results are taken from patent US20230194519A1 (CCOA THERAPEUTICS, published 2023).

The Kd is the free concentration of one partner at which half of the binding sites on the other are occupied at equilibrium, for simple one-to-one binding.

T1 sequence (P08514 other isoform, or with tags, fused parts or gaps limits assumed, chain 1 of 2): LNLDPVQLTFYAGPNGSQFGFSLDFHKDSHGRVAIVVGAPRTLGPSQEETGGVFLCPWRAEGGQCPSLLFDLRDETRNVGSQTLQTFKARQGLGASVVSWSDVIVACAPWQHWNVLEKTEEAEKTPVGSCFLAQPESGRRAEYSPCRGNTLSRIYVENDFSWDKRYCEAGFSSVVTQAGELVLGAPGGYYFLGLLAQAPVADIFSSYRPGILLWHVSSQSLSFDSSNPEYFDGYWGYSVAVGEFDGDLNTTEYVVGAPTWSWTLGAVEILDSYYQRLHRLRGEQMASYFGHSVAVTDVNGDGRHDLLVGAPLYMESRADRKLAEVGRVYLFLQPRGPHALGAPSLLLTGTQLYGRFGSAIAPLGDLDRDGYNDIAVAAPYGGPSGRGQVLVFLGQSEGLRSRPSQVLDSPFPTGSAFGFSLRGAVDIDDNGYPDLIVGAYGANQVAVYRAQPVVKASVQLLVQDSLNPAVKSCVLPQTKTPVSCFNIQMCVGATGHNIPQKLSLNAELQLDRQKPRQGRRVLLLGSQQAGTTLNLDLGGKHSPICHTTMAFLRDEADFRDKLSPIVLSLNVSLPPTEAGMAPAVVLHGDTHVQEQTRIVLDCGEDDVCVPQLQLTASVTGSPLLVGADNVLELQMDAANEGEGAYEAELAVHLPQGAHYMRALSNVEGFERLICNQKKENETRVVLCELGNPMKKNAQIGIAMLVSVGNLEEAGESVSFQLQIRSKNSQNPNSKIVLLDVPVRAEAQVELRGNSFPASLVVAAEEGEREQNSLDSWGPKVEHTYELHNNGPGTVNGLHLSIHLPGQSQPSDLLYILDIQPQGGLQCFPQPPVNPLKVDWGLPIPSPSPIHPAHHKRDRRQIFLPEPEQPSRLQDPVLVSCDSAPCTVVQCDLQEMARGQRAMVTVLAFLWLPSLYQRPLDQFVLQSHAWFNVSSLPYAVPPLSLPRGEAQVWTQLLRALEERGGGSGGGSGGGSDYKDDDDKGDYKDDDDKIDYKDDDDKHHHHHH
T1 sequence (P05106 other isoform, or with tags, fused parts or gaps limits assumed, chain 2 of 2): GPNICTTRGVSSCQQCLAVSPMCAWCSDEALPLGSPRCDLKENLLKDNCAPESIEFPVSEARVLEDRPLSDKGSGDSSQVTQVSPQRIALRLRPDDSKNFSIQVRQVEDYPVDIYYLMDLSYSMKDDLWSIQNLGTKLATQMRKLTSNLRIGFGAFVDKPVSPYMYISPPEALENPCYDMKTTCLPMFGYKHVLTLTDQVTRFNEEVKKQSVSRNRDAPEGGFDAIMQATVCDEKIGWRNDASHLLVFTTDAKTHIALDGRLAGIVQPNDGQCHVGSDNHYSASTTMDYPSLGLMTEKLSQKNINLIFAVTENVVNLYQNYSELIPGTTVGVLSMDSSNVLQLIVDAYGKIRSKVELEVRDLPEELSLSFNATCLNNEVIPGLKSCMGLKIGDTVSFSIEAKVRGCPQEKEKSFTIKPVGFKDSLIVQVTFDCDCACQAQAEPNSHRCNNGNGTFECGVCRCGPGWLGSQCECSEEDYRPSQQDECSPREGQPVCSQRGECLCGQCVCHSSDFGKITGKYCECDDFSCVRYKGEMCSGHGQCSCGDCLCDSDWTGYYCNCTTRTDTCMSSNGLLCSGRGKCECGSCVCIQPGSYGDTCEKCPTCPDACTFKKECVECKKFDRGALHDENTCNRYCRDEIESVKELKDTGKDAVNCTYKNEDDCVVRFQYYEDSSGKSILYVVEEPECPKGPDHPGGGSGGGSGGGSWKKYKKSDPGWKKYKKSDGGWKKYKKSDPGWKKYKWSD
Sequence of Activated αIIbβ3 (recombinant human ectodomain αIIbβ3 on DETA beads after incubation in activation buffer with CaCl2, MnCl2 and MgCl2) (human) (P08514 other isoform, or with tags, fused parts or gaps limits assumed, chain 1 of 2): as the sequence (P08514 other isoform, or with tags, fused parts or gaps limits assumed, chain 1 of 2) above
Sequence of Activated αIIbβ3 (recombinant human ectodomain αIIbβ3 on DETA beads after incubation in activation buffer with CaCl2, MnCl2 and MgCl2) (human) (chain, as listed by the source limits assumed, chain 2 of 2): as the sequence (P05106 other isoform, or with tags, fused parts or gaps limits assumed, chain 2 of 2) above
Sequence of Inactive αIIbβ3 (recombinant human ectodomain αIIbβ3 on DETA beads before activation) (human) (P08514 other isoform, or with tags, fused parts or gaps limits assumed, chain 1 of 2): as the sequence (P08514 other isoform, or with tags, fused parts or gaps limits assumed, chain 1 of 2) above
Sequence of Inactive αIIbβ3 (recombinant human ectodomain αIIbβ3 on DETA beads before activation) (human) (chain, as listed by the source limits assumed, chain 2 of 2): as the sequence (P05106 other isoform, or with tags, fused parts or gaps limits assumed, chain 2 of 2) above

On to PAC-1 (antibody), for which the Mean Fluorescence Intensity (MFI) came to 212 MFI in assay [1] and 942 MFI in assay [2].

B1: fibrinogen (ligand)
chain 1: ADSGEGDFLAEGGGVRGPRVVERHQSACKDSDWPFCSDEDWNYKCPSGCRMKGLIDEVNQDFTNRINKLKNSLFEYQKNNKDSHSLTTNIMEILRGDFSSANNRDNTYNRVSEDLRSRIEVLKRKVIEKVQHIQLLQKNVRAQLVDMKRLEVDIDIKIRSCRGSCSRALAREVDLKDYEDQQKQLEQVIAKDLLPSRDRQHLPLIKMKPVPDLVPGNFKSQLQKVPPEWKALTDMPQMRMELERPGGNEITRGGSTSYGTGSETESPRNPSSAGSWNSGSSGPGSTGNRNPGSSGTGGTATWKPGSSGPGSTGSWNSGSSGTGSTGNQNPGSPRPGSTGTWNPGSSERGSAGHWTSESSVSGSTGQWHSESGSFRPDSPGSGNARPNNPDWGTFEEVSGNVSPGTRREYHTEKLVTSKGDKELRTGKEKVTSGSTTTTRRSCSKTVTKTVIGPDGHKEVTKEVVTSEDGSDCPEAMDLGTLSGIGTLDGFRHRHPDEAAFFDTASTGKTFPGFFSPMLGEFVSETESRGSESGIFTNTKESSSHHPGIAEFPSRGKSSSYSKQFTSSTSYNRGDSTFESKSYKMADEAGSEADHEGTHSTKRGHAKSRPV
chain 2: QGVNDNEEGFFSARGHRPLDKKREEAPSLRPAPPPISGGGYRARPAKAAATQKKVERKAPDAGGCLHADPDLGVLCPTGCQLQEALLQQERPIRNSVDELNNNVEAVSQTSSSSFQYMYLLKDLWQKRQKQVKDNENVVNEYSSELEKHQLYIDETVNSNIPTNLRVLRSILENLRSKIQKLESDVSAQMEYCRTPCTVSCNIPVVSGKECEEIIRKGGETSEMYLIQPDSSVKPYRVYCDMNTENGGWTVIQNRQDGSVDFGRKWDPYKQGFGNVATNTDGKNYCGLPGEYWLGNDKISQLTRMGPTELLIEMEDWKGDKVKAHYGGFTVQNEANKYQISVNKYRGTAGNALMDGASQLMGENRTMTIHNGMFFSTYDRDNDGWLTSDPRKQCSKEDGGGWWYNRCHAANPNGRYYWGGQYTWDMAKHGTDDGVVWMNWKGSWYSMRKMSMKIRPFFPQQ
chain 3: YVATRDNCCILDERFGSYCPTTCGIADFLSTYQTKVDKDLQSLEDILHQVENKTSEVKQLIKAIQLTYNPDESSKPNMIDAATLKSRKMLEEIMKYEASILTHDSSIRYLQEIYNSNNQKIVNLKEKVAQLEAQCQEPCKDTVQIHDITGKDCQDIANKGAKQSGLYFIKPLKANQQFLVYCEIDGSGNGWTVFQKRLDGSVDFKKNWIQYKEGFGHLSPTGTTEFWLGNEKIHLISTQSAIPYALRVELEDWNGRTSTADYAMFKVGPEADKYRLTYAYFAGGDAGDAFDGFDFGDDPSDKFFTSHNGMQFSTWDNDNDKFEGNCAEQDGSGWWMNKCHAGHLNGVYYQGGTYSKASTPNGYDNGIIWATWKTRWYSMKKTTMKIIPFNRLTIGEGQQHHLGGAKQAGDV
modifications: Alexa488 label in the Table 2 assay
notes: Native ligand of αIIbβ3; also called Alexa488 labelled fibrinogen; Alexa 488 - Fibrinogen
As to B1, the Kd in assay [3] is 2.2 µM; in assay [4], 0.21 µM.
